Laboratory results published in the supplement of paper PMC9112550, “Optimization of the antimicrobial peptide Bac7 by deep mutational scanning” (BMC Biology, 2022).

System: Escherichia coli TOP10
Assay: shrunken log2 fold change of peptide-encoding DNA abundance (4.5 h post-induction vs induction); higher = less antimicrobial activity (less host growth inhibition)
Conditions: time post-induction: 4.5 h; library: site-saturation at positions 5, 18, 19, 20
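Further: peptides expressed intracellularly from a pBAD plasmid library in pooled LB shake-flask culture, induced with 0.3% L-arabinose, DNA abundance read by NGS, three biological replicates, DESeq2 with apeglm shrinkage.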

Sequence | shrunken log2 fold change
RRIRYRPPRLPRPRPRPNEFPRP | -0.498
RRIRFRPPRLPRPRPRPKNMPRP | -0.724
RRIRPRPPRLPRPRPRPPHRPRP | 0.401
RRIRLRPPRLPRPRPRPSFHPRP | -0.457
RRIRYRPPRLPRPRPRPPPLPRP | 0.616
RRIRRRPPRLPRPRPRPGGWPRP | 0.824
RRIRSRPPRLPRPRPRPQGWPRP | 0.469
RRIRVRPPRLPRPRPRPAMKPRP | -0.187
RRIRIRPPRLPRPRPRPKELPRP | -0.563
RRIRHRPPRLPRPRPRPQFTPRP | -0.182
RRIRFRPPRLPRPRPRPGYQPRP | -0.0555
RRIRNRPPRLPRPRPRPHIWPRP | -0.0306
RRIRKRPPRLPRPRPRPWHFPRP | 0.169
RRIRFRPPRLPRPRPRPRYGPRP | -0.299
RRIRQRPPRLPRPRPRPQWQPRP | 0.16
RRIRWRPPRLPRPRPRPWMMPRP | 0.119
RRIRSRPPRLPRPRPRPRVYPRP | -0.348
RRIRHRPPRLPRPRPRPHFWPRP | -0.0607
RRIRNRPPRLPRPRPRPLCAPRP | 0.194
RRIRLRPPRLPRPRPRPDVVPRP | 0.0387
RRIRQRPPRLPRPRPRPIGEPRP | -0.0171
RRIRSRPPRLPRPRPRPPFYPRP | -0.154
RRIRVRPPRLPRPRPRPQQCPRP | 0.145

Sequence | shrunken log2 fold change
RRIRPRPPRLPRPRPRPVVSPRP | -0.0387
RRIRTRPPRLPRPRPRPPPTPRP | 0.828
RRIRVRPPRLPRPRPRPVHCPRP | -0.0781
RRIRLRPPRLPRPRPRPQNKPRP | -0.432
RRIRMRPPRLPRPRPRPGVFPRP | 0.858
RRIRYRPPRLPRPRPRPLNSPRP | -0.0402
RRIRTRPPRLPRPRPRPLEYPRP | -0.668
RRIRVRPPRLPRPRPRPFPWPRP | -0.0892
RRIRHRPPRLPRPRPRPKENPRP | -0.0597
RRIRRRPPRLPRPRPRPTLPPRP | 0.482
RRIRWRPPRLPRPRPRPYWMPRP | -0.265
RRIRHRPPRLPRPRPRPTRMPRP | 0.237
RRIRARPPRLPRPRPRPIGCPRP | 0.445
RRIRCRPPRLPRPRPRPPRMPRP | 0.671
RRIRPRPPRLPRPRPRPARRPRP | 0.374
RRIRDRPPRLPRPRPRPPWFPRP | 0.336
RRIRLRPPRLPRPRPRPCFEPRP | -0.0179
RRIRSRPPRLPRPRPRPCGRPRP | -0.485
RRIRARPPRLPRPRPRPPDKPRP | 0.572
RRIRYRPPRLPRPRPRPEWFPRP | -0.0405
RRIRDRPPRLPRPRPRPKWSPRP | -0.0182
RRIRLRPPRLPRPRPRPRCHPRP | -0.277
RRIRKRPPRLPRPRPRPGMQPRP | -0.00459

Sequence | shrunken log2 fold change
RRIRCRPPRLPRPRPRPVCPPRP | 0.0356
RRIRVRPPRLPRPRPRPFQAPRP | -0.127
RRIRIRPPRLPRPRPRPQDYPRP | -0.162
RRIRERPPRLPRPRPRPMAYPRP | -0.0427
RRIRMRPPRLPRPRPRPRTMPRP | 0.926
RRIRWRPPRLPRPRPRPRDVPRP | 0.333
RRIRNRPPRLPRPRPRPWFGPRP | -0.208
RRIRERPPRLPRPRPRPNYTPRP | -0.773
RRIRHRPPRLPRPRPRPMYNPRP | -0.833
RRIRQRPPRLPRPRPRPDERPRP | -0.00664
RRIRERPPRLPRPRPRPRTCPRP | -0.0174
RRIRERPPRLPRPRPRPYFRPRP | -0.622
RRIRVRPPRLPRPRPRPDANPRP | 0.167
RRIRWRPPRLPRPRPRPKGYPRP | 0.0648
RRIRGRPPRLPRPRPRPNGVPRP | -0.186
RRIRVRPPRLPRPRPRPDICPRP | 0.221
RRIRDRPPRLPRPRPRPVFGPRP | 0.342
RRIRHRPPRLPRPRPRPGINPRP | -0.422
RRIRPRPPRLPRPRPRPDEGPRP | -0.188
RRIRFRPPRLPRPRPRPKWFPRP | 0.045
RRIRMRPPRLPRPRPRPEYTPRP | -0.0269
RRIRMRPPRLPRPRPRPHWYPRP | -0.484
RRIRMRPPRLPRPRPRPSSDPRP | 0.111

Sequence | shrunken log2 fold change
RRIRRRPPRLPRPRPRPRTWPRP | 1.84
RRIRFRPPRLPRPRPRPDAQPRP | 0.483
RRIRTRPPRLPRPRPRPMIRPRP | -0.0798
RRIRRRPPRLPRPRPRPIVYPRP | -0.00893
RRIRTRPPRLPRPRPRPWTSPRP | 0.0106
RRIRSRPPRLPRPRPRPPEHPRP | 0.169
RRIRDRPPRLPRPRPRPEVKPRP | -0.0257
RRIRIRPPRLPRPRPRPFNAPRP | -0.551
RRIRARPPRLPRPRPRPWRIPRP | -0.0489
RRIRVRPPRLPRPRPRPCICPRP | -0.338
RRIRSRPPRLPRPRPRPKRQPRP | 0.000345
RRIRRRPPRLPRPRPRPFKHPRP | -0.212
RRIRCRPPRLPRPRPRPSCYPRP | -0.295
RRIRIRPPRLPRPRPRPADPPRP | -0.071
RRIRGRPPRLPRPRPRPHGGPRP | 0.631
RRIRRRPPRLPRPRPRPACQPRP | 0.835
RRIRGRPPRLPRPRPRPVLVPRP | 0.628
RRIRPRPPRLPRPRPRPTFRPRP | 0.0885
RRIRRRPPRLPRPRPRPLGLPRP | 0.363
RRIRYRPPRLPRPRPRPNHRPRP | -0.767
RRIRNRPPRLPRPRPRPIYHPRP | -0.526
RRIRTRPPRLPRPRPRPLDSPRP | -0.0239
